Laboratory results as given in patent US10787678.

Target: A. diaperinus cadherin-1 (AdCad1) (Alphitobius diaperinus)
Assay: cell-based or functional assay

Substance: Cry3Bb toxin (from UniProt Q06117 64-652)
- larval mortality on day 3, 100 ug/cm^2 Cry3Bb, larvae injected with AdCad1-dsRNA #1 (AdCad1 knocked down): 8%
- larval mortality on day 3, 100 ug/cm^2 Cry3Bb, larvae injected with AdCad1-dsRNA #2 (AdCad1 knocked down): 11%
